One data set deals with Osteocalcin-/- mice. The experiment in a line: Intracerebro-ventricular (ICV) infusion in Osteocalcin-/- mice, behavioral tests. The class given is in vivo, mouse. Here is the method:
FIG. 4. Administration of osteocalcin prevents anxiety and depression. (A-E) Behavioral analyses of adult Osteocalcin^−/− mice receiving osteocalcin through intracerebro-ventricular (ICV) infusions. (A) Light and Dark test, (B) Elevated plus maze test, (C) Open field test, (D) Forced swim test, and (E) Tail suspension test performed in a cohort of WT (n=7) and Osteocalcin^−/− infused with vehicle or osteocalcin (10 ng/hour). In each set of three bars, the rightmost bar represents the results following administration of osteocalcin.
Osteocalcin^−/−, Gprc6a^−/−, Osteocalcin-mCherry, and Osteocalcin floxed mice have been previously described (Ducy et al., 1996, Nature 382:448-452; Oury et al., 2011, Cell 144:796-809). Mouse genotypes were determined by PCR. For all experiments, controls were littermate female WT, Cre-expressing, or flox/flox. All mice were maintained on a pure 129-Sv genetic background except for the inducible deletion Osteocalcin model (mix background: 25% C57/BL6 and 75% 129sv). […] Leptin and osteocalcin content in sera and tissues were determined by ELISA.
Tail suspension testing was performed as previously described (Mayorga et al., 2001, J. Pharmacology Exper. Therapeutics 298:1101-1107; Stem et al., 1985, Psychopharmacology 85:367-370). […] The parameter recorded was the number of seconds spent immobile. Mice were scored by a highly trained observer, over a 5 min period, blind to the genotype of the mice.
Anxiety and locomotor activity of mice were measured using the open field test (David et al., 2009, Neuron 62:479-493). […] Mice were monitored throughout each test session by video tracking and analyzed using Matlab software. […] The overall motor activity was quantified as the total distance travelled. The anxiety was quantified measuring the number of rearings and the time and distance spent in the center versus periphery of the open field chamber (in %).
Each mouse was allowed to explore the apparatus for 5 min. Global activity was assessed by measuring the number of entries […] (David et al, 2009, Neuron 62:479-493). […]

Data set [1] deals with mouse primary hindbrain neurons (MPHN). The experiment in a line: Calcium flux in primary hindbrain neurons. The class given is cell-based. Particulars: MPHN treated with undercarboxylated or carboxylated osteocalcin. Here is the method: For calcium imaging, primary hindbrain neurons seeded on 12 mm coverslips were allowed the appropriate time to form structural networks. These cultures were washed with HBSS and loaded with 2.5 μM FURA-2, AM calcium indicator for 45 minutes at room temperature, according to the manufacturer's protocol. Cells were then washed to remove excess indicator and incubated for 30 minutes to allow internalized esters to become de-esterified. 30 ng/ml of osteocalcin was prepared with the control buffer of 1×HBBS supplemented with 10 mM HEPES buffer and 2 mM CaCl2. Using a Zeiss microscope with a perfusion system, coverslips were first perfused with control and osteocalcin. After each stimulation, cells were depolarized with 50 mM KCl to determine the percentage of live cells being imaged. All treatments were recorded using two-photon laser scanning microscopy by Prairie Technologies and analyzed by Z axis profile plotting using ImageJ.
To determine if osteocalcin acts directly on neurons to modulate neurotransmitter synthesis, several types of assays were performed. First, brainstem and midbrain explants from WT and Gprc6a^−/− mice were generated. […] Third, to further confirm that osteocalcin signals in neurons of the hindbrain, calcium flux in MPHN treated with undercarboxylated or carboxylated osteocalcin (FIG. 3F) was measured. […]
On the technique in general: Calcium assays in cells follow changes in intracellular calcium, usually with a dye or a luminescent sensor.

B1: uncarboxylated osteocalcin: Recombinant osteocalcin bacterially produced, cleaved from the GST subunit; completely undercarboxylated at all three sites (protein, listed as Homo sapiens)
chain: MRALTLLALLALAALCIAGQAGAKPSGAESSKGAAFVSKQEGSEVVKRPRRYLYQWLGAPVPYPDPLEPRREVCELNPDCDELADHIGFQEAYRRFYGPV
modifications: uncarboxylated
notes: Recombinant osteocalcin bacterially produced, cleaved from the GST subunit; completely undercarboxylated at all three sites
Take B1: the “leakage of centrally delivered hormone into the general circulation (osteocalcin in blood)” value with Osteocalcin-/- mice (ICV 10 ng/hour, infused Osteocalcin-/- mice) is listed as “no leakage”. Further, the “anxiety and depression features (DLT, EPMT, OFT, FST, TST)” value in the data set on Osteocalcin-/- mice (ICV 10 ng/hour, week-long treatment, Osteocalcin-/- mice) is “corrected the anxiety and depression features”. Further, the “defects in anxiety, depression, learning, and memory” value in the data set with Osteocalcin-/- mice (direct administration to the brains of adult Osteocalcin-/- mice) was “rescued defects in anxiety, depression, learning, and memory”. Further, the “calcium fluxes in primary hindbrain neurons” value in data set [1] is on record as “induced changes in calcium fluxes”.

These data come from US10052364B2, “Osteocalcin as a treatment for cognitive disorders” (THE TRUSTEES OF COLUMBIA UNIVERSITY IN THE CITY OF NEW YORK, priority 2013, dated 2018).
